# Experimental data from article PMC10397247.
# T1: 4H797-bA
# T1 chain: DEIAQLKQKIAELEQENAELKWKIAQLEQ
# T2: 4H4001-bA
# T2 chain: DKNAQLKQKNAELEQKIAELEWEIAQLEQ
# T3: 4H72-bA
# T3 chain: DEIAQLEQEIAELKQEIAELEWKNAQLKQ
# T4: 4H370-bA
# T4 chain: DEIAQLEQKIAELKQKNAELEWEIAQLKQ
# T5: 4H3843-bA
# T5 chain: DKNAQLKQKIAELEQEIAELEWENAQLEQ
# T6: 4H967-bA
# T6 chain: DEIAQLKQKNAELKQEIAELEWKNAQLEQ
# T7: 4H462-bA
# T7 chain: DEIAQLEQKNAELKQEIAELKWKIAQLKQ
# T8: 4H918-bA
# T8 chain: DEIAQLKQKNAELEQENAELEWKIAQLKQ
# T9: 4H3782-bA
# T9 chain: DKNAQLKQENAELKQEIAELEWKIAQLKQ
# T10: 4H883-bA
# T10 chain: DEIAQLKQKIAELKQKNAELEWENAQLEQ
# T11: 4H687-bA
# T11 chain: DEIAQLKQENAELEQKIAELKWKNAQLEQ
# T12: 4H607-bA
# T12 chain: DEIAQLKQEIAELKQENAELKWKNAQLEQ
# T13: 4H953-bA
# T13 chain: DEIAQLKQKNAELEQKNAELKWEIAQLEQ
# T14: 4H568-bA
# T14 chain: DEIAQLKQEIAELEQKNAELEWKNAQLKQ
# T15: 4H855-bN
# T15 chain: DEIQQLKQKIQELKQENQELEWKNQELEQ
# T16: 4H797-bN
# T16 chain: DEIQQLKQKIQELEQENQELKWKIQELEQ
# T17: 4H575-bN
# T17 chain: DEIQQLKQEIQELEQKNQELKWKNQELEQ
# T18: 4H4073-bN
# T18 chain: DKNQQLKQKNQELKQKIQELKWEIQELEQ
# T19: 4H72-bH
# T19 chain: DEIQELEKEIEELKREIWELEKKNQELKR
# T20: 4H968-bN
# T20 chain: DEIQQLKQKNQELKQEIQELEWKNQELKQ
# T21: 4H754-bN
# T21 chain: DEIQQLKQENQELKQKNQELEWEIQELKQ
# T22: 4H346-bN
# T22 chain: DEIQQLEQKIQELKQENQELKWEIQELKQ
# T23: 4H457-bN
# T23 chain: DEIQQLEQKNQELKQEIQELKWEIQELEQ
# T24: 4H918-bN
# T24 chain: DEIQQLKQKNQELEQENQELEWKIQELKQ
# T25: 4H953-bN
# T25 chain: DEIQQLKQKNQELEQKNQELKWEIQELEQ
# T26: 4H683-bN
# T26 chain: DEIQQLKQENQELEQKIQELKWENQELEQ
# T27: 4H3926-bN
# T27 chain: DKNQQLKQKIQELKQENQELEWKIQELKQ
# T28: 4H780-bN
# T28 chain: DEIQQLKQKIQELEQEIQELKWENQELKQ
# What was measured:
# Test in all cases: two-hybrid library CCNG1;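 also: natural log of median RNA to DNA barcode read ratio; higher means stronger binding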
# 4H797-bA = molecular target: T1, 4H797-bA
# 4H4001-bA = molecular target: T2, 4H4001-bA
# 4H72-bA = molecular target: T3, 4H72-bA
# 4H370-bA = molecular target: T4, 4H370-bA
# 4H3843-bA = molecular target: T5, 4H3843-bA
# 4H967-bA = molecular target: T6, 4H967-bA
# 4H462-bA = molecular target: T7, 4H462-bA
# 4H918-bA = molecular target: T8, 4H918-bA
# 4H3782-bA = molecular target: T9, 4H3782-bA
# 4H883-bA = molecular target: T10, 4H883-bA
# 4H687-bA = molecular target: T11, 4H687-bA
# 4H607-bA = molecular target: T12, 4H607-bA
# 4H953-bA = molecular target: T13, 4H953-bA
# 4H568-bA = molecular target: T14, 4H568-bA
# 4H855-bN = molecular target: T15, 4H855-bN
# 4H797-bN = molecular target: T16, 4H797-bN
# 4H575-bN = molecular target: T17, 4H575-bN
# 4H4073-bN = molecular target: T18, 4H4073-bN
# 4H72-bH = molecular target: T19, 4H72-bH
# 4H968-bN = molecular target: T20, 4H968-bN
# 4H754-bN = molecular target: T21, 4H754-bN
# 4H346-bN = molecular target: T22, 4H346-bN
# 4H457-bN = molecular target: T23, 4H457-bN
# 4H918-bN = molecular target: T24, 4H918-bN
# 4H953-bN = molecular target: T25, 4H953-bN
# 4H683-bN = molecular target: T26, 4H683-bN
# 4H3926-bN = molecular target: T27, 4H3926-bN
# 4H780-bN = molecular target: T28, 4H780-bN
binder,measurement,setting,value
DEIAQLEQKIAELKQKNAELEWEIAQLKQ [4H370-bA],interaction score,4H797-bA,-0.315
same,interaction score,4H4001-bA,-0.375
same,interaction score,4H72-bA,0.634
same,interaction score,4H370-bA,1.12
same,interaction score,4H3843-bA,-0.261
same,interaction score,4H967-bA,-0.217
same,interaction score,4H462-bA,1.39
same,interaction score,4H918-bA,-0.552
same,interaction score,4H3782-bA,0.864
same,interaction score,4H883-bA,-0.545
same,interaction score,4H687-bA,-0.346
same,interaction score,4H607-bA,-0.647
same,interaction score,4H953-bA,-1.39
same,interaction score,4H568-bA,1.81
DEIQQLEQKIQELKQENQELKWEIQELKQ [4H346-bN],interaction score,4H855-bN,-0.517
same,interaction score,4H370-bA,0.693
same,interaction score,4H797-bN,-0.125
same,interaction score,4H575-bN,-0.652
same,interaction score,4H4073-bN,-0.58
same,interaction score,4H72-bH,0.0876
same,interaction score,4H968-bN,-0.647
same,interaction score,4H754-bN,-0.573
same,interaction score,4H346-bN,1.02
same,interaction score,4H457-bN,-0.931
same,interaction score,4H918-bN,-0.654
same,interaction score,4H953-bN,-0.533
same,interaction score,4H683-bN,0.0158
same,interaction score,4H3926-bN,1.53
same,interaction score,4H780-bN,0.0007
